Measured values from patent US20170095417A1, “Percutaneous Implement and Method for Manufacturing” (priority 2015, published 2017).

Legend:
[1] = test system: rat; assay: Micro payload injected in rat, hypotension and dye distribution (Example 5); format: in vivo; conditions: half-shell Maltose cone mixed 1 mg Alprostadil, indicates vasodilation
Protocol: A sample of micro payload integrated a 1 mm length conic micro-head with drug and 2 mm length micro-stem without drug was injected in rat.

[2] = test system: skin; conditions: in vivo
[3] = format: physicochemical
From the text: (§1) Quadrangular pyramidal micro-head of 0.7 mm length and 0.1 mm bottom side length was contained anhydrous and amorphous oblate spheroidal Maltose chip of 0.02 mm length and 0.01 mm diameter. The chip was made from mixing material of 50% Maltose and 50% Hyaluronic acid included 30% albumen which was non-heat resistance limited in 70 degree centigrade. Three micro-heads were installed in three lengths of micro implements of 1 mm, 2 mm, and 3 mm.

[4] = test system: skin; conditions: rat, in vivo
From the text: as §1

CCCCC[C@H](O)/C=C/[C@H]1[C@H](O)CC(=O)[C@@H]1CCCCCCC(=O)O [Alprostadil]
hypotension [1]: 20 mmHg

Hyaluronic acid
transfer of chip into skin [2]: completely transferred into skin

albumin
heat stability in forming process [3]: resisted temperature of the micro implement forming process | aggregation depths versus implement length [4]: corresponded to the three length respectively | deposition in skin [4]: albumin aggregation in skin
